This assay addresses Full-length Human cytomegalovirus glycoprotein B (FL-gB), Strep-tagged (Human cytomegalovirus (FIX7 BAC)). The assay is described as follows: negative-stain electron microscopy; purified FL-gB on a glow-discharged carbon grid, 2% uranyl formate, 2D class averages.

The stoichiometry N is the number of molecules, sites or subunits per partner or assembly.

As to “Full-length Human cytomegalovirus glycoprotein B (FL-gB), Strep-tagged (natural protein)”, the stoichiometry N is 3.

These data come from article PMC3942479.
